Test results: patent US7422883 (INTER K, dated 2008)
Blank lines part the entries; values can stand above or below the binder they belong to. No end group written: not given here. *: point of attachment. Biotin = O=C1N[C@H]2[C@H](CS[C@H]2CCCCC(=O)*)N1

Tests used:
[1] = target: T1, ERK2 cleaved from GST-ERK2 by thrombin (Mus musculus (Mouse), UniProt P63085 1-358, limits assumed); assay: ELISA with thrombin-cleaved ERK2 (FIG. 23)
T1 construct: also called ERK2 (thrombin cleaved)

[2] = target: T2, ERK2 (soluble ERK2 used in the ELISAs of Examples 10 to 12) (Mus musculus (Mouse), UniProt P63085 1-358, limits assumed); assay: ELISA, corrected for non-specific binding (FIG. 34)
T2 sequence (P63085 whole entry): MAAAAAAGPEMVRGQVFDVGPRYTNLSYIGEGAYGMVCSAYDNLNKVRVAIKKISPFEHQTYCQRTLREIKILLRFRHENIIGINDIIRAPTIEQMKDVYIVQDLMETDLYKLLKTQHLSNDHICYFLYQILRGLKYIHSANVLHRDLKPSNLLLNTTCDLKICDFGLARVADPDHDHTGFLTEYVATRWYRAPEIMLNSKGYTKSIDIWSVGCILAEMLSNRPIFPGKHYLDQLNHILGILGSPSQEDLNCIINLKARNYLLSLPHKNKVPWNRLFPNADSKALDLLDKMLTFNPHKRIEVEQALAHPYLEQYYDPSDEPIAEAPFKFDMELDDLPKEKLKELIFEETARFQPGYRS

[3] = target: T3, GST.ERK2 (non-phosphorylated ERK2 coupled to glutathione-S-transferase) (Mus musculus (Mouse), UniProt P63085 1-358); assay: ELISA over a range of peptide concentrations (FIG. 20)
T3 construct: not shown: glutathione-S-transferase encoded by pGEX vector; N-terminal position assu
T3 sequence (P63085 whole entry): as above

[4] = target: T3, GST.ERK2 (non-phosphorylated ERK2 …); assay: ELISA, biotinylated peptide on streptavidin plate, detection with SC1647
Protocol: Peptide fragments corresponding to regions of the cytoplasmic tail domain of the β6 subunit were screened in an enzyme-linked immunosorbent assay (ELISA) for binding with ERK2. The 52 amino acid long β6 cytoplasmic tail is shown in FIG. 16 as are the amino acid sequences for the cytoplasmic domains of the β1 to β3 subunits. In particular, four synthetic peptides designated fragment 1 to fragment 4 were prepared and biotinylated at the N-terminal end of each, respectively (Auspep Pty Ltd, Melbourne Australia).
Overlapping biotinylated fragments 1 to 4 were coated onto streptavidin coated polystyrene plates (Pierce, Rockford Ill. USA, Cat No. 15125) and the ELISA performed substantially according to manufacturers instructions. […]
Binding of ERK to the peptides is detected using 100 µl anti-ERK1/2 mAb SC1647 (Santa Cruz) as the primary antibody at a dilution of 1:700 (isotype matched antibody IgG2b is used as a control). […] A […] of detection reagent (alkaline phosphatase detection kit-Biorad) is then introduced into each well after a final washing step and allowed to react for 15-30 minutes at room temperature in the dark before absorbance is measured at 405 nm. […]

[5] = target: T2, ERK2 (soluble ERK2 used in the ELISAs …); assay: ELISA of ERK2 on synthetic peptide

T1 sequence (P63085 whole entry): as above

Binder: RSKAKWQTGTNPLYR (also: biotinylated, position not given here, also called 15-mer β6 peptide) [15 mer test peptide (seq. 4) RSKAKWQTGTNPLYR]
binding result [1]: binds
binding result [2]: binds
binding result [3]: binds

Binder: RSKAKWQTGT (also: biotinylated, position not given here) [10 mer test peptide RSKAKWQTGT]
binding result [3]: binds

Binder: KFEKEKMNAKWDTGENPIYK (also called β1 peptide) [β1 cytoplasmic domain peptide KFEKEKMNAKWDTGENPIYK]
binding result [5]: no binding (tested: ERK2 (1 µm) by the legend of FIG. 35C)

Other lines, results leading:

binding result [2]: binds
Binder: RSRARYEMASNPLYR (also called β5 peptide; β5 fragment) [β5 cytoplasmic domain peptide RSRARYEMASNPLYR]

binding result [1]: binds
Binder: RSKAKNPLYR (4 with WQTGT omitted) [10 mer peptide 10(4) RSKAKNPLYR]

binding result [2]: binds
Binder: RARAKWDTANNPLYK (also called β3 peptide) [β3 cytoplasmic domain peptide RARAKWDTANNPLYK]

binding result [4]: binds
Binder: Biotin-RSKAKWQTGTNPLYRGSTST (also called peptide fragment 2) [Fragment 2 of the β6 cytoplasmic tail]
